{"source": "paper PMC5979539", "about": "(International Journal of Molecular Sciences, 2018)", "origin": "cited, not measured here", "test_system": "PC membranes", "conditions": "cited from earlier work", "description": "Despite the above-discussed limitations, we were able to determine the SPR binding parameters of PDC-109. Affinity constants (Table 4) indicated weak to moderate binding for carbohydrates, at least if compared to the considerably higher affinity (KA~10^7 M^−1) found for PC membranes.", "data": [{"molecule": "PDC-109: main protein of bovine seminal plasma, purified from bull seminal plasma; glycosylated and non-glycosylated forms (protein, mixture of the glycosylated (O-linked trisaccharide, Neu5Ac-Hex-HexNAc) and non-glycosylated forms) DQDEGVSTEPTQDGPAELPEDEECVFPFVYRNRKHFDCTVHGSLFPWCSLDADYVGRWKYCAQRDYAKCVFPFIYGGKKYETCTKIGSMWMSWCSLSPNYDKDRAWKYC", "values": [{"measurement": "KA for PC membranes", "value": "~ 10^7 M^−1"}]}]}
